From publication PMC4159615 (Developmental cell, 2014)

What was measured:
[1] = molecular target: the molecule itself; assay: crystal structure
[2] = molecular target: T1, Bch1 (S. cerevisiae (yeast), UniProt Q05029 1-724); assay: crystal structure
T1 sequence: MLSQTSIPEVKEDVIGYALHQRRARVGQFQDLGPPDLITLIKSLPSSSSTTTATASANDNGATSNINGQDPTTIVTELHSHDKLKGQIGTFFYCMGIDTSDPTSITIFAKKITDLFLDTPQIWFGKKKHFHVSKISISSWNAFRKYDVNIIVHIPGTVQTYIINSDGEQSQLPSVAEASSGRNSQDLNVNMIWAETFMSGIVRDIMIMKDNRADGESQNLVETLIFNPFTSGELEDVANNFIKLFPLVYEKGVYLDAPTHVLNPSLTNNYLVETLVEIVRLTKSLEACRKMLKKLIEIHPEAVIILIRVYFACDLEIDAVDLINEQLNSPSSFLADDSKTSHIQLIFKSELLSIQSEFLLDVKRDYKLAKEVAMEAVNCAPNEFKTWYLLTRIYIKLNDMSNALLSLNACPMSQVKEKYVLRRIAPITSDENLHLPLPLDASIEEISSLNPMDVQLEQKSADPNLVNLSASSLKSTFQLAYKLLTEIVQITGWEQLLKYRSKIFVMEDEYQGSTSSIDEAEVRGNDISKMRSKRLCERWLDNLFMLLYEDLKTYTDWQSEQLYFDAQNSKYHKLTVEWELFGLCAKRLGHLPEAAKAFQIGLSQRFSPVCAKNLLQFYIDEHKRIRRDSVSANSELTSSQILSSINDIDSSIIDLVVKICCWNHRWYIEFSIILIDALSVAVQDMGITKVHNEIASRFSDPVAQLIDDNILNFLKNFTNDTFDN

[3] = molecular target: T2, Chs5(1-299)/Chs6 exomer complex (S. cerevisiae (yeast), UniProt Q12114 1-299; P40955 1-746); assay: co-sedimentation
T2 sequence (looked up) 1: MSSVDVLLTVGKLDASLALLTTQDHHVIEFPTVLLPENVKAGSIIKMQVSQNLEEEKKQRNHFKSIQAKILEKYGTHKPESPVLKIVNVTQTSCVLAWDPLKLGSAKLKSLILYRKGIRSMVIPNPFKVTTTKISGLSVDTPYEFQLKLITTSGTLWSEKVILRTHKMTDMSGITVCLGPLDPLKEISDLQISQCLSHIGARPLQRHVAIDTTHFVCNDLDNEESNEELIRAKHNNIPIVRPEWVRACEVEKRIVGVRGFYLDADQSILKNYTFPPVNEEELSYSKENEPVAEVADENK
T2 sequence (looked up) 2: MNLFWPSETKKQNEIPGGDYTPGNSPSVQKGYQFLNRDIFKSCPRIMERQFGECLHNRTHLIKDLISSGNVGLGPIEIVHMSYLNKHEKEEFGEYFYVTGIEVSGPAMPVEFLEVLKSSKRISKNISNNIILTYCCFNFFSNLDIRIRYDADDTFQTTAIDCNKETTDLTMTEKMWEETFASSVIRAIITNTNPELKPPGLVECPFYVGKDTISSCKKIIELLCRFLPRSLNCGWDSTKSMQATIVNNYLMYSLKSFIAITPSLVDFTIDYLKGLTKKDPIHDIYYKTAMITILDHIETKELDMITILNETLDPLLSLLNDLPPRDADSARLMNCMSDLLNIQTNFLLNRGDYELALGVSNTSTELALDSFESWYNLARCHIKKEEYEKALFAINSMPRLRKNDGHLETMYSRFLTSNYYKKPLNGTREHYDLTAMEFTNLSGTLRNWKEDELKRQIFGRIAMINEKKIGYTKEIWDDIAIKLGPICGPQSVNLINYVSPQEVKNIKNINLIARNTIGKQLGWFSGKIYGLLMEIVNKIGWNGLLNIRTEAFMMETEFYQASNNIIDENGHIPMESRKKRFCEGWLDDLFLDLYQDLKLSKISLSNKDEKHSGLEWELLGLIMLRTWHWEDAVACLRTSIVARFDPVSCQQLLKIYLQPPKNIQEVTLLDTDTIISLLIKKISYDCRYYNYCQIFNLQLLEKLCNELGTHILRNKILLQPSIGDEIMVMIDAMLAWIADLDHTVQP

[4] = molecular target: T3, Chs5(1-299)/Bch1 exomer complex (S. cerevisiae (yeast), UniProt Q12114 1-299; Q05029 1-724); assay: co-sedimentation
T3 sequence 1: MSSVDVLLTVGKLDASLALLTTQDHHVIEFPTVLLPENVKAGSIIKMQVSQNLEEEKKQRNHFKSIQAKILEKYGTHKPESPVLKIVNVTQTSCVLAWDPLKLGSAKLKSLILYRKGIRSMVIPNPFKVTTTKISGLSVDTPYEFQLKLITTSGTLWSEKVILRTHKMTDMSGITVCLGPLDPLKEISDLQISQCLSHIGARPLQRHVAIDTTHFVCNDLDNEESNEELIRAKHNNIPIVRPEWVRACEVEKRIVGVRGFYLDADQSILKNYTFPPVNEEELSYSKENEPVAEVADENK
T3 sequence 2: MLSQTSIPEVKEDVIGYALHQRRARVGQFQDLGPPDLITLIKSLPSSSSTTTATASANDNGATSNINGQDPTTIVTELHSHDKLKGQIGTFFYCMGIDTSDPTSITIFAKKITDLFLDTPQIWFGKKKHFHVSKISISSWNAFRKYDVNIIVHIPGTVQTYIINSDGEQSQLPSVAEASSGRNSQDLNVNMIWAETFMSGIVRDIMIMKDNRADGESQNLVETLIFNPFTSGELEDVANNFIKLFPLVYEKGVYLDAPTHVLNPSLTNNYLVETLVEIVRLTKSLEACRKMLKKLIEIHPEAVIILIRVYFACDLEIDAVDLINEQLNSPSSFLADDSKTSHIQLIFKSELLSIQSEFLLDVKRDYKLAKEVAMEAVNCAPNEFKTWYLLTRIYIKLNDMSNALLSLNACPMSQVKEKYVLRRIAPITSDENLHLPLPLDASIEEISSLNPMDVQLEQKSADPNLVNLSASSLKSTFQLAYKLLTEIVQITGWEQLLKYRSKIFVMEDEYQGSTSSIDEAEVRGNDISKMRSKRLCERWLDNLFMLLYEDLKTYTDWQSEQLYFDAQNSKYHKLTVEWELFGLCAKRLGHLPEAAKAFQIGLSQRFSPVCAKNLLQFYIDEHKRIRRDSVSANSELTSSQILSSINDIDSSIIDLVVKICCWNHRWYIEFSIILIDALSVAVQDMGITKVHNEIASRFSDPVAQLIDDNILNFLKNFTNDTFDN

[5] = molecular target: T4, Chs5(1-299)-T92Y/Bch1-N692I exomer complex (S. cerevisiae (yeast), UniProt Q12114 1-299; Q05029 1-724, T92Y | N692I); assay: co-sedimentation
T4 sequence 1: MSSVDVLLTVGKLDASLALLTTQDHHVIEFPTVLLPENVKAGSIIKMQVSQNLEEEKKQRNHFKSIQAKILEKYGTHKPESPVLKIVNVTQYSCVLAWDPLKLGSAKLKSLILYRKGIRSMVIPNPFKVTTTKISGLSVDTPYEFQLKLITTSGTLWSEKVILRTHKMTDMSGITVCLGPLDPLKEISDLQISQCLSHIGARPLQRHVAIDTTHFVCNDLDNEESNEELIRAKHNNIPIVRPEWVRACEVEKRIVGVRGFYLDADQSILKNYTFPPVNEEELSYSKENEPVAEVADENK
T4 sequence 2: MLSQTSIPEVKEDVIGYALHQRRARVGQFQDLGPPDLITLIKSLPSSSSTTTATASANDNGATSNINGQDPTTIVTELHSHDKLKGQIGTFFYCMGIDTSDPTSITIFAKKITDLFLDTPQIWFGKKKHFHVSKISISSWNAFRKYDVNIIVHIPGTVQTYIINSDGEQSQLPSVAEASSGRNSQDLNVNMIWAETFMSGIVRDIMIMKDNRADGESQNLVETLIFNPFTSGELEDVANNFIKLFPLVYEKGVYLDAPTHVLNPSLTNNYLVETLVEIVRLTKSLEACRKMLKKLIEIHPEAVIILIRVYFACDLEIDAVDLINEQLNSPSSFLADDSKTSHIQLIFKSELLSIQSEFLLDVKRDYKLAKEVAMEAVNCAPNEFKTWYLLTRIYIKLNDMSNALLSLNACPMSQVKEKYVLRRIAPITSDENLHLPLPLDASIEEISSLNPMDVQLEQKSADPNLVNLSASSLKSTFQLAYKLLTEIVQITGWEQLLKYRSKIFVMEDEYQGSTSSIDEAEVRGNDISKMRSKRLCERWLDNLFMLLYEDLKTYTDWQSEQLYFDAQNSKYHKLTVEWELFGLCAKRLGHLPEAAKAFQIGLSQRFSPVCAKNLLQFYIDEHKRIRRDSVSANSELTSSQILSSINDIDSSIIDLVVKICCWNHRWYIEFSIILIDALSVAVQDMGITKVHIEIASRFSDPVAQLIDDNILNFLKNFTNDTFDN

[6] = molecular target: T5, Chs5(1-299)/Bch1-N692I exomer complex (S. cerevisiae (yeast), UniProt Q12114 1-299; Q05029 1-724, N692I); assay: co-sedimentation
T5 sequence 1: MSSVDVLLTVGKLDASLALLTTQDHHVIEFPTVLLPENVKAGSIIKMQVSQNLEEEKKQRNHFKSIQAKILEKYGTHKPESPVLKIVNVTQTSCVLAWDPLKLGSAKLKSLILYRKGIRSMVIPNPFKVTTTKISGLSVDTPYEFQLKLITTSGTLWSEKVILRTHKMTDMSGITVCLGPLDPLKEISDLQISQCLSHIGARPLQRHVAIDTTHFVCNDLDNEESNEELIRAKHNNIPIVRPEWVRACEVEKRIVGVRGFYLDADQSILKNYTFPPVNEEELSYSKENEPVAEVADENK
T5 sequence 2: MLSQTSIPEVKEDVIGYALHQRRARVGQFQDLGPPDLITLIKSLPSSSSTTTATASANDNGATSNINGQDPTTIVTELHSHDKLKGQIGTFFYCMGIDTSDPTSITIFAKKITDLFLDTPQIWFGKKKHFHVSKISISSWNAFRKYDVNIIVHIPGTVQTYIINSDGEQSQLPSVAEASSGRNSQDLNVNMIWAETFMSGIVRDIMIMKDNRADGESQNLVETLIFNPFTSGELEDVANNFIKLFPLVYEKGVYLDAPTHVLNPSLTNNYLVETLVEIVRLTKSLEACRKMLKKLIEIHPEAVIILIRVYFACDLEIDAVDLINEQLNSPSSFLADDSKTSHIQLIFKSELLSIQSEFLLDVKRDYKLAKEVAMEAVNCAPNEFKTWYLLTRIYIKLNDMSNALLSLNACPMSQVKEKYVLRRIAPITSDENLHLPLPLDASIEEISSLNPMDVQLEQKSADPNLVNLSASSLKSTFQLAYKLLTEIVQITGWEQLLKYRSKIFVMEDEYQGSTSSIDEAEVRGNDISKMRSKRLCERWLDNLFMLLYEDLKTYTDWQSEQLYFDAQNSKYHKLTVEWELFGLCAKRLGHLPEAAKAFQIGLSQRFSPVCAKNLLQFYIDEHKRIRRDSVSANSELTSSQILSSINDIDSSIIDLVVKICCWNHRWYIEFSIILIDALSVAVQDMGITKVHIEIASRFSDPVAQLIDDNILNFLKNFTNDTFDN

[7] = molecular target: T6, Chs5(1-299)-T92Y/Bch1 exomer complex (S. cerevisiae (yeast), UniProt Q12114 1-299; Q05029 1-724, T92Y); assay: co-sedimentation
T6 sequence 1: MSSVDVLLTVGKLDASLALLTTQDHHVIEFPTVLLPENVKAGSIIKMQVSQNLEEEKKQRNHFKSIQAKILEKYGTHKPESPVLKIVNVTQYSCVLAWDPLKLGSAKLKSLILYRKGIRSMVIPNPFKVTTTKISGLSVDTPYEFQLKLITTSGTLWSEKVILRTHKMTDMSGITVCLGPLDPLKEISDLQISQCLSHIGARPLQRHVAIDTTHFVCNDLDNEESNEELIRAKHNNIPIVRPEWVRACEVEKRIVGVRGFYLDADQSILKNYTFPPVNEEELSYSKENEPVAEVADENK
T6 sequence 2: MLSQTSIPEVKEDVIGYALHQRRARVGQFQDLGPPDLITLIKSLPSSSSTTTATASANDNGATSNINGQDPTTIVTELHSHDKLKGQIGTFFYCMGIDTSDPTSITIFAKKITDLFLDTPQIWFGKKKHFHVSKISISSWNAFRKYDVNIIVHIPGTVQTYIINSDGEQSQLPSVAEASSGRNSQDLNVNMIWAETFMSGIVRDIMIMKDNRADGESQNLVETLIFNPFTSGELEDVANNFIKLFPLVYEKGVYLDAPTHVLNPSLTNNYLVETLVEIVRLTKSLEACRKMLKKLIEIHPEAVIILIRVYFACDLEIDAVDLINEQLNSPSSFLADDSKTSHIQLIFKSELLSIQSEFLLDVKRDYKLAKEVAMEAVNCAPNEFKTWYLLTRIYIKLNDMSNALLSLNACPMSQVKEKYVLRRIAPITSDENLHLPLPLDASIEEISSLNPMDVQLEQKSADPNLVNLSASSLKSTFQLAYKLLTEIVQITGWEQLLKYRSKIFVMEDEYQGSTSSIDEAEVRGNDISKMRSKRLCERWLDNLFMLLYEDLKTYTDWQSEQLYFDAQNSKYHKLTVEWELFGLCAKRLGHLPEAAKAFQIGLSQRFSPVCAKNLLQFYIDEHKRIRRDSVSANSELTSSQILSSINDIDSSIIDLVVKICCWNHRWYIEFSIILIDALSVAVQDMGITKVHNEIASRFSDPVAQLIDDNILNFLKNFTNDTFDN

Measured: binding result

B1: Chs5 (residues 1-299) (domain or fragment, S. cerevisiae (yeast), UniProt Q12114 1-299, looked up)
chain: MSSVDVLLTVGKLDASLALLTTQDHHVIEFPTVLLPENVKAGSIIKMQVSQNLEEEKKQRNHFKSIQAKILEKYGTHKPESPVLKIVNVTQTSCVLAWDPLKLGSAKLKSLILYRKGIRSMVIPNPFKVTTTKISGLSVDTPYEFQLKLITTSGTLWSEKVILRTHKMTDMSGITVCLGPLDPLKEISDLQISQCLSHIGARPLQRHVAIDTTHFVCNDLDNEESNEELIRAKHNNIPIVRPEWVRACEVEKRIVGVRGFYLDADQSILKNYTFPPVNEEELSYSKENEPVAEVADENK
binds: [1] | [2]

B2: myristoylated Arf1 (wild type), GTP-bound, anchored on liposomes (natural protein, yeast, UniProt P11076 1-181, looked up)
chain: MGLFASKLFSNLFGNKEMRILMVGLDGAGKTTVLYKLKLGEVITTIPTIGFNVETVQYKNISFTVWDVGGQDRIRSLWRHYYRNTEGVIFVVDSNDRSRIGEAREVMQRMLNEDELRNAAWLVFANKQDLPEAMSAAEITEKLGLHSIRNRPWFIQATCATSGEGLYEGLEWLSNSLKNST
modifications: myristoylated
binds: [3] | [4] | [5] | [6] | [7]
